Test results as given in patent US7771961B2, “Cytochrome c acetylation” (Elixir Pharmaceuticals, Inc, priority 2002, dated 2010).

B1: recombinant GST-SIRT3: recombinant GST fusion of a fragment of human SIRT3 lacking the first 100 amino acids of the N-terminus (protein)
chain: SISFSVGASSVVGSGGSSDKGKLSLQDVAELIRARACQRVVVMVGAGISTPSGIPDFRSPGSGLYSNLQQYDLPYPEAIFELPFFFHNPKPFFTLAKELYPGNYKPNVTHYFLRLLHDKGLLLRLYTQNIDGLERVSGIPASKLVEAHGTFASATCTVCQRPFPGEDIRADVMADRVPRCPVCTGVVKPDIVFFGEPLPQRFLLHVVDFPMADLLLILGTSLEVEPFASLTEAVRSSVPRLLINRDLVGPLAWHPRSRDVAQLGDVVHGVESLVELLGWTEEMRDLVQRETGKLDGPDK
modifications: left off: a dimerising Fc or GST
notes: recombinant GST fusion of a fragment of human SIRT3 lacking the first 100 amino acids of the N-terminus
B2: cell derived SIRT3: SIRT3 enzyme derived from pull down of 293T cell extracts (protein)
chain: MAFWGWRAAAALRLWGRVVERVEAGGGVGPFQACGCRLVLGGRDDVSAGLRGSHGARGEPLDPARPLQRPPRPEVPRAFRRQPRAAAPSFFFSSIKGGRRSISFSVGASSVVGSGGSSDKGKLSLQDVAELIRARACQRVVVMVGAGISTPSGIPDFRSPGSGLYSNLQQYDLPYPEAIFELPFFFHNPKPFFTLAKELYPGNYKPNVTHYFLRLLHDKGLLLRLYTQNIDGLERVSGIPASKLVEAHGTFASATCTVCQRPFPGEDIRADVMADRVPRCPVCTGVVKPDIVFFGEPLPQRFLLHVVDFPMADLLLILGTSLEVEPFASLTEAVRSSVPRLLINRDLVGPLAWHPRSRDVAQLGDVVHGVESLVELLGWTEEMRDLVQRETGKLDGPDK
modifications: left off: large carriers
notes: SIRT3 enzyme derived from pull down of 293T cell extracts
B3: recombinant GST-SIRT2: recombinant GST fusion of human SIRT2, NAD-dependent deacetylase (protein)
chain: MAEPDPSHPLETQAGKVQEAQDSDSDSEGGAAGGEADMDFLRNLFSQTLSLGSQKERLLDELTLEGVARYMQSERCRRVICLVGAGISTSAGIPDFRSPSTGLYDNLEKYHLPYPEAIFEISYFKKHPEPFFALAKELYPGQFKPTICHYFMRLLKDKGLLLRCYTQNIDTLERIAGLEQEDLVEAHGTFYTSHCVSASCRHEYPLSWMKEKIFSEVTPKCEDCQSLVKPDIVFFGESLPARFFSCMQSDFLKVDLLLVMGTSLQVQPFASLISKAPLSTPRLLINKEKAGQSDPFLGMIMGLGGGMDFDSKKAYRDVAWLGECDQGCLALAELLGWKKELEDLVRREHASIDAQSGAGVPNPSTSASPKKSPPPAKDEARTTEREKPQ
modifications: left off: a dimerising Fc or GST
notes: recombinant GST fusion of human SIRT2, NAD-dependent deacetylase

Tests used:
[1] = test system: chemically acetylated cytochrome c; test: titrated acetate release assay of deacetylation activity; assay type: biochemical; details: in vitro, in the presence and absence of NAD
Protocol: (§1) The activity of these proteins was determined in vitro using either a ^14C-nicotinamide release assay or a titrated acetate release assay.
(§2) Recombinant GST-SIRT2 deacetylation activity was tested on chemically acetylated cytochrome c in the presence and absence of NAD. Deacetylation activity was determined in vitro using a titrated acetate release assay.
as §2, with “GST-SIRT3” for “GST-SIRT2”, “NAD. The recombinant SIRT3 was a fragment of human SIRT3 lacking the first 100 amino acids of the N-terminus of full length human SIRT3.” for “NAD.”

[2] = test system: chemically acetylated cytochrome c; test: 14C-nicotinamide release assay of deacetylation activity; assay type: biochemical; details: in vitro, enzyme from pull down of 293T cell extracts, GFP as control
Protocol: as §1
Cell derived GST-SIRT3 deacetylation activity was tested on chemically acetylated cytochrome c. The SIRT3 was derived from “pull down” 293T extracts.
Deacetylation activity was determined in vitro using a ^14C-nicotinamide release assay. Deacetylation was determined for GFP (control) with chemically acetylated cytochrome c, SIRT3-GFP with chemically acetylated cytochrome c, and SIRT3-GFP with histone 4.

Molecule	deacetylation activity on chemically acetylated cytochrome c [1]	deacetylation activity on chemically acetylated cytochrome c [2]
B1	deacetylates cytochrome c in a NAD dependent manner	
B2		deacetylates cytochrome c
B3	deacetylates cytochrome c in a NAD dependent manner	
